B1: ADI-11826 Fab (Fab, V domains shown)
VH: EVQLVESGGGLVQPGGSLRLSCAASGFTFPGYWMSWVRQAPGKGLEWVANINQDGSEVYYVDSVKGRFTISRDNAKNSLYLQMNSLRAEDTAVYYCAREANYYGNVGDDYWGQGTLVTVSS
VL: DIQMTQSPSSLSASVGDRVTITCRASQSIYNYLNWYQQKPGKAPKLLIYAASSTQSGVPSRFSGSGSGTDFTLTISSLQPEDFATYYCQQAFHVPITFGGGTKVEIK
notes: Fab fragment; also called Ab26
B2: ADI-11812 Fab (Fab, V domains shown)
VH: QVQLVQSGAEVKKPGASVKVSCKASGYTFEIYYMHWVRQAPGQGLEWMGIINPSSGSTVYAQKFQGRVTMTRDTSTSTVYMELSSLRSEDTAVYYCARGAGYDDEDMDVWGKGTTVTVSS
VL: DIQMTQSPSSVSASVGDRVTITCRASQGIDSWLAWYQQKPGKAPKLLIYAASSLQSGVPSRFSGSGSGTDFTLTISSLQPEDFATYYCQQAHSYPLTFGGGTKVEIK
notes: Fab fragment; also called Ab24
B3: ADI-11802 Fab (Fab, V domains shown)
VH: QVQLVQSGAEVKKPGASVKVSCKASGYTFSGYYMHWVRQAPGQGLEWMGMINPYGGSTRYAQKFQGRVTMTRDTSTSTVYMELSSLRSEDTAVYYCAREAADGFVGERYFDLWGRGTLVTVSS
VL: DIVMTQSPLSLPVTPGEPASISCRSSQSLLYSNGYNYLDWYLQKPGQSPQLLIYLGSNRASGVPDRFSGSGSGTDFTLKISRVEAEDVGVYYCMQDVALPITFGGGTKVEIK
notes: Fab fragment; also called Ab23
B4: ADI-10157 Fab (Fab, V domains shown)
VH: QVQLQESGPGLVKPSETLSLTCTVSGGSISSYYWSWIRQPPGKGLEWIGSIYYSGSTNYNPSLKSRVTISVDTSKNQFSLKLSSVTAADTAVYYCARVGGVYSTIETYGMDVWGQGTTVTVSS
VL: EIVMTQSPATLSVSPGERATLSCRASQSVSSNLAWYQQKPGQAPRLLIYGASTRATGIPARFSGSGSGTEFTLTISSLQSEDFAVYYCQQYTVYPPTFGGGTKVEIK
notes: Fab fragment; also called Ab13

Each binder was assayed against T1, human CD33 extracellular domain (human, UniProt P20138 18-259) (assay: SPR, Fab captured, 37C).
T1 construct: soluble monomeric ECD; also called human CD33 ECD; hCD33
Procedure: (§1) Kinetics and affinity of a series of Fab fragments of anti-CD33 antibodies with different CD33 variants (human CD33 ECD, cyno CD33 ECD, V-domain of human CD33, C-domain or human CD33 and selected CD33 SNPs) were assessed by surface plasmon resonance using Biacore 8K instrument (GE Healthcare). Anti-Fab antibody was immobilized on a CMS chip using standard amine coupling chemistry. CD33 FABs were captured on the anti-Fab chip at a density of ˜100 RU. Solutions containing different concentrations of soluble monomeric CD33 or its domains were injected over the captured FABs and control surfaces at 30 μl/min at 37° C. Surfaces were regenerated between cycles by quick injection of 10 mM glycine, pH 1.8. To obtain kinetic rate constants double-referenced data were fit to a 1:1 interaction model using Biacore 8K Evaluation software (GE Healthcare). The equilibrium binding constant KD was determined by the ratio of binding rate constants kd/kₐ.
(§2) Affinity of 29 Fab fragments binding to human and cyno CD33 ECD were assayed by Biacore analysis.

Kd [nM]	koff [s⁻¹]	Binder
2.63	0.00463	B1
1.23	0.000486	B2
3.14	0.00154	B3
2.69	0.0076	B4

Target: T1, human CD33 extracellular domain
Test: SPR, Fab captured, 37C
Remark: another data set of the same source
Procedure: as §1, §2

Kd [nM]	koff [s⁻¹]	kon [M⁻¹ s⁻¹]	Binder
2.63	0.00463	1.76e+06	B1
1.23	0.000486	396000	B2
3.14	0.00154	490000	B3
2.69	0.0076	2.82e+06	B4

The binders below were run against T2, C domain of human CD33 (human, UniProt P20138 140-259, limits assumed) (assay: SPR, Fab captured, 37C).
T2 construct: recombinant C domain
Procedure: as §1
The binding interface between the Fab fragment of each CD33 antibody to CD33 was mapped.

binding result	Binder
no binding	B1
no binding	B2
no binding	B3
no binding	B4

Each binder was assayed against T3, deglycosylated V domain of human CD33 (human, UniProt P20138 18-139, limits assumed, N-glycans removed by PNGase) (assay: SPR, Fab captured, 37C).
T3 construct: V domain deglycosylated by PNGase before testing; also called deglycosylated V CD33
Procedure: as §1
(§3) The ability of anti-CD33 antibodies to recognize glycosylated CD33 was assayed. […] De-glycosylation status was confirmed by a shift on SDS-PAGE and MS.

Kd [nM]	koff [s⁻¹]	kon [M⁻¹ s⁻¹]	binding result	Binder
3.69	0.0198	5.37e+06		B1
			no binding	B2
2.65	0.00417	1.57e+06		B3
63.8	0.0261	411000		B4

These binders were tested against T4, V domain of human CD33 (human, UniProt P20138 18-139, limits assumed) (assay: SPR, Fab captured, 37C).
T4 construct: recombinant, fully glycosylated V domain; also called Human CD33 V domain
Procedure: as §1, §3

Kd [nM]	koff [s⁻¹]	kon [M⁻¹ s⁻¹]	Binder
4.38	0.0225	5.12e+06	B1
3.2	0.00435	1.34e+06	B3
134	0.0151	112000	B4

These binders were tested against T5, cyno CD33 extracellular domain (Cynomolgus/Rhesus (cyno)) (assay: SPR, Fab captured, 37C;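 also: surface plasmon resonance with Fabs captured on anti-Fab surface, soluble monomeric CD33 as analyte at several concentrations, double-referenced 1:1 model fit, KD as koff/kon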).
T5 construct: soluble monomeric ECD; also called cyno CD33 ECD
Procedure: as §1, §2

binding result	Binder
no binding (tested: 100 nM)	B1
no binding (tested: 100 nM)	B2
no binding (tested: 100 nM)	B3
no binding (tested: 100 nM)	B4

Target: T1, human CD33 extracellular domain
Test: SPR, Fab captured, 37C
Remark: another data set of the same source
Procedure: as §1, §2

Kd [nM]	koff [s⁻¹]	kon [M⁻¹ s⁻¹]	Binder
2.63	0.00463	1.76e+06	B1
1.23	0.000486	396000	B2
3.14	0.00154	490000	B3
2.69	0.0076	2.82e+06	B4

Target: T4, V domain of human CD33
Test: SPR, Fab captured, 37C
Remark: another data set of the same source
Procedure: as §1

Kd [nM]	koff [s⁻¹]	kon [M⁻¹ s⁻¹]	binding result	Binder
4.38	0.0225	5.12e+06		B1
			no binding	B2
3.2	0.00435	1.34e+06		B3
134	0.0151	112000		B4

Target: T1, human CD33 extracellular domain
Test: SPR, Fab captured, 37C
Remark: another data set of the same source
Procedure: as §1

Kd [nM]	koff [s⁻¹]	kon [M⁻¹ s⁻¹]	Binder
2.63	0.00463	1.76e+06	B1
1.23	0.000486	396000	B2
3.14	0.00154	490000	B3
2.69	0.0076	2.82e+06	B4

Source: patent US20220380459A1 (DRAGONFLY THERAPEUTICS, published 2022)
